Tests used:
[1] = molecular target: T1, recombinant human tumor necrosis factor-α (Biosource, USA) (human, UniProt P01375 77-233); experiment: cell-based or functional assay
[2] = molecular target: T1, recombinant human tumor necrosis …; experiment: SPR (Biacore2000), hTNF-α immobilized on CM5 chip, antibody 25-400 nM as analyte
Method: (§1) Then, association and dissociation constants of the reactions were measured by Biacore2000 (Biacore, Sweden).

[3] = molecular target: T1, recombinant human tumor necrosis …; experiment: competitive ELISA (Friguet method), antibody pre-incubated with soluble hTNF-α, plate coated with hTNF-α
Method: For antibody quantification, 100 ng of goat anti-human immunoglobulin G.A.M (Zymed Laboratories Inc., USA) was distributed into each well of a microplate (Dynatech Laboratories Inc., USA) and the well plate was kept at 4° C. overnight to coat it with the immunoglobulin. At this time, mouse monoclonal antibody TSK114 was used as a control.
Each of the reactants was added to the well plate coated with 0.4 μg of the antigen and the well plate was kept at 37° C. for about 1.5 hrs. A goat anti-human polyclonal antibody (BioRad, USA) conjugated with horseradish peroxidase was diluted at a ratio of 1:1000 and 100 μl of the diluted antibody solution was added to each well. The well plate was kept at 37° C. for 1 hr. After the reaction was completed, the optical density of each well was measured using a horseradish peroxidase substrate kit (BioRad, USA).
Concentrations of the antibody bound to the antigen and the unbound antibody were calculated from the measured optical density, and antigen-binding affinity of the humanized antibodies were determined therefrom (Friguet B. et al., J. Immunol. Meth., 77: 305-319, 1985).

[4] = molecular target: T1, recombinant human tumor necrosis …; experiment: SPR (Biacore2000), hTNF-α immobilized
Method: as §1

T1 sequence (P01375 77-233 limits assumed): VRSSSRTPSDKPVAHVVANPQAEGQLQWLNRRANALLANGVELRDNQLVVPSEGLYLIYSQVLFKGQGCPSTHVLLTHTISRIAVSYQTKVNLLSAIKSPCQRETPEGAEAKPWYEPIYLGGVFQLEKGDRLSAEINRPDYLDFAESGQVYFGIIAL

B1: mouse monoclonal antibody TSK114 (antibody, V domains shown)
VH: QVQLVQSGPELKKPGETVKISCKASGYTFTHYGMNWVKQAPGEGLKWMGWINTNTGEPRYDEEFKGRFAFSLETSASTAYLQINNLRREDTATYFCARYDSRGFDCWGQGTTLTVSS
VL: QIVLTQSPAIMSASLGERVTMTCTASSSISYNYFHWYQQRPGSSPKLWIYSSSNLASGVPPRISGSGSGTSYSLTISSMEAEDAATYYCHQYERSPWTFGGGTKLEIKR
notes: Mouse monoclonal antibody (deposits KCTC 10514BP and KCTC 10515BP); also called Mouse antibody TSK114
In the case of B1, the “IC50 (concentration of the antibodies inhibiting cell death by 50%), WHEI 164 cells, MTT” value [1] is reported as 4.7 ng/mL, the Kd [2] is reported as 5.79 pM and the koff [2] is reported as 2.39e-07 s⁻¹. The kon [2] was 41200 M⁻¹ s⁻¹ and the Kd [3] was 0.14 nM.

B2: humanized antibody YHB1411 (antibody, V domains shown)
VH: QVQLVQSGPELKKPGASVKVSCKASGYTFTHYGMNWVRQAPGKGLEWMGWINTNTGEPRYDEEFKGRVTMTRDTSASTAYMELSSLRSEDTAVYYCARYDSRGFDCWGQGTTVTVSS
VL: QIVMTQSPSSLSASVGERVTITCTASSSISYNYFHWYQQKPGSAPKLWIYSSSNLASGVPSRFSGSGSGTDFTFTISSLQPEDIATYYCHQYERSPWTFGGGTKVEIKR
notes: Human heavy and kappa light constant regions come from pHAB-HC and pHAB-KC
In the case of B2, the “IC50 (concentration of the antibodies inhibiting cell death by 50%), WHEI 164 cells, MTT” value [1] is reported as 6.7 ng/mL and the Kd [3] is reported as 0.2 nM.

B3: humanized antibody YHB1406 (antibody, V domains shown)
VH: QVQLVQSGPELKKPGASVKVSCKASGYTFTHYGMNWVRQAPGQGLEWMGWINTNTGEPRYDEEFKGRVTMTRDTSASTAYMELSSLRSEDTAVYYCARYDSRGFDCWGQGTTVTVSS
VL: QIVMTQSPSSLSASVGERVTITCTASSSISYNYFHWYQQKPGSAPKLWIYSSSNLASGVPSRFSGSGSGTDFTFTISSLQPEDIATYYCHQYERSPWTFGGGTKVEIKR
notes: Human heavy chain constant region comes from vector pHAB-HC and human kappa light chain constant region from pHAB-KC
B3 was tested, and the “IC50 (concentration of the antibodies inhibiting cell death by 50%), WHEI 164 cells, MTT” value [1] was 9.2 ng/mL and the Kd [3] was 0.22 nM.

B4: humanized antibody YHB1411-2 (antibody, V domains shown)
VH: QVQLVQSGPELKKPGASVKVSCKASGYTFTHYGMNWVRQAPGKGLEWMGWINTNTGEPRYDEEFKGRVTMTRDTSASTAYMELSSLRSEDTAVYYCARYDSRGFDCWGQGTTVTVSS
VL: DIVMTQSPSSLSASVGERVTITCTASSSISYNYFHWYQQKPGSAPKLWIYSSSNLASGVPSRFSGSGSGTDFTFTISSLQPEDIATYYCHQYERSPWTFGGGTKVEIKR
notes: Human heavy and kappa light constant regions come from pHAB-HC and pHAB-KC; also called YBB1411-2
With B4 the “IC50 (concentration of the antibodies inhibiting cell death by 50%), WHEI 164 cells, MTT” value [1] was 5.5 ng/mL, the “fold higher antigen binding affinity than mouse monoclonal antibody TSK114” value [4] was about 3 fold and the Kd [2] was 1.71 pM. The koff [2] was 6.8e-08 s⁻¹, the kon [2] was 39600 M⁻¹ s⁻¹ and the Kd [3] was 0.2 nM.

B5: humanized antibody YHB1406-2 (antibody, V domains shown)
VH: QVQLVQSGPELKKPGASVKVSCKASGYTFTHYGMNWVRQAPGKGLEWMGWINTNTGEPRYDEEFKGRVTMTRDTSASTAYMELSSLRSEDTAVYYCARYDSRGFDCWGQGTTLTVSS
VL: DIVMTQSPSSLSASVGERVTITCTASSSISYNYFHWYQQKPGSAPKLWIYSSSNLASGVPSRFSGSGSGTDFTFTISSLQPEDIATYYCHQYERSPWTFGGGTKVEIKR
notes: as for B2
B5 was tested, and the “IC50 (concentration of the antibodies inhibiting cell death by 50%), WHEI 164 cells, MTT” value [1] was 6.5 ng/mL and the Kd [3] was 0.29 nM.
